Here are results for four substances from patent US20180064758A1.

The target in test [1] is CD19 (partner in the 'Cellular affinity' column). The experiment in a line: column 'Cellular affinity' of the drawn table; unit not given, the assay is not described in the filing and the format of the construct is not stated.
Test [2] concerns the target Recombinant soluble CD19 ectodomain (made in 293T cells) (UniProt P15391). The experiment in a line: flow cytometry of transduced primary human T-cells stained with anti-CD3 and, for CAR, with recombinant CD19. Other quadrants: 74.7 upper left, 1.86 lower left, 0.16 lower right. The non-transduced control has 0.27 in the upper right. (In general: A flow cytometer gives signals particle by particle.)

Test [3] shares this target. As to the kind of experiment: flow cytometry of transduced primary human T-cells stained with anti-CD3 and, for CAR, with recombinant CD19. Other quadrants: 67.5 upper left, 1.43 lower left, 0.24 lower right. The non-transduced control has 0.27 in the upper right.

Sequence of UniProt P15391 (P15391 20-291 limits assumed): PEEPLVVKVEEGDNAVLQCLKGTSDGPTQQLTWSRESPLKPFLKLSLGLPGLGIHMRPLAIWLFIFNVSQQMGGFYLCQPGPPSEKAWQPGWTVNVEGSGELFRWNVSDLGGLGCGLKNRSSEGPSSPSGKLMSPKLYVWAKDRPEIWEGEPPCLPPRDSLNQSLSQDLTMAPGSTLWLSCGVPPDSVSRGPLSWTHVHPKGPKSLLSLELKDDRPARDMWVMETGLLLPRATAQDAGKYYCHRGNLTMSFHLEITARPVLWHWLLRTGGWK

As for “4G7 scFv-Fc (soluble recombinant scFv in scFv-Fc format, made in 293T cells) (Fc fusion)”, the Cellular affinity in test [1] was found to be 1e-09.

The substance “Fmc63 scFv-Fc (soluble recombinant scFv in scFv-Fc format, made in 293T cells) (Fc fusion)” registered a Cellular affinity in test [1] of 2e-10.

As for “4G7 CAR in the Campana format (CD8 stalk spacer and transmembrane domain, 41BB endodomain, CD3-Zeta endodomain), on primary human T-cells”, the % of cells in the CD3+ CAR+ quadrant (upper right) in test [2] turned out to be 23.3%.

For “fmc63 CAR in the Campana format (CD8 stalk spacer and transmembrane domain, 41BB endodomain, CD3-Zeta endodomain), on primary human T-cells”, the % of cells in the CD3+ CAR+ quadrant (upper right) in test [3] worked out at 30.8%.
